The values below come from US20260092097A1 (published 2026).

The target in the assay is T1, p53 peptide on HLA-A*02:01 (human).
T1 peptide: STPPPGTRV
The assay is described as follows: binding, other.

B1: c149scTCR (TCR, V domains shown)
Valpha: QKVTQTQTSISVMEKTTVTMDCVYETRDSSYFLFWYKQTASGEIVFLIRQDSYKKENATEGHYSLNFQKPKSSIGLIITATQIEDSAVYFCAMRDTNAYKVIFGKGTHLHVLP
Vbeta: EAAVTQSPRSKVAVTGGKVTLSCHQTNNHDYMYWYRQDTGHGLRLIHYSYVADSTEKGDIPDGYKASRPSQENFSLILELASLSQTAVYFCASSPHSYEQYFGPGTRLTVL
Regarding B1, the binding result is recorded as “recognises”.
